Source: publication PMC7018950, “A conserved strategy of chalcone isomerase-like protein to rectify promiscuous chalcone synthase specificity” (Nature Communications, 2020)
One block for each binder: values may come before it.

Tests used:
[1] = target: T1, His6-tagged Arabidopsis thaliana chalcone synthase (AtCHS) (Arabidopsis thaliana, UniProt P13114 1-395); experiment: BLI; BLItz; His6-tagged CHS immobilised on anti-His6 sensors, GST-tagged CHIL loaded (30-150 s), wash (150-270 s); 100 mM HEPES-NaOH, pH 7.5; 1:1 binding model; apparent KD; conditions: both partners purified
T1 construct: also called TT4; source: E. coli BL21 (pCold I), purified; not shown: His6, N-terminal, kept
T1 sequence (looked up): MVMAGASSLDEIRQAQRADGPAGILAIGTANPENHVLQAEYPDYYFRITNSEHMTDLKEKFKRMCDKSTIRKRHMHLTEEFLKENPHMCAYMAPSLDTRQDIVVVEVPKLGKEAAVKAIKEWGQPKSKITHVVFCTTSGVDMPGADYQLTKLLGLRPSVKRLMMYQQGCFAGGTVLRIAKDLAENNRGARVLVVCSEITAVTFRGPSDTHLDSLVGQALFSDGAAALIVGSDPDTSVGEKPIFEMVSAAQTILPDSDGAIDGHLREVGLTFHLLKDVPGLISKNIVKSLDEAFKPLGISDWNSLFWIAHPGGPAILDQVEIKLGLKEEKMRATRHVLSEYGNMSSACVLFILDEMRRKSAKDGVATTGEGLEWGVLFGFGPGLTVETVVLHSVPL

[2] = target: T2, glutathione S-transferase-tagged CHIL of morning glory (Ipomoea nil (morning glory)); experiment: BLI; BLItz; His6-tagged CHS immobilised on anti-His6 sensors, GST-tagged CHIL loaded; 100 mM HEPES-NaOH pH 7.5; 1:1 binding model; apparent KD; conditions: both partners purified
T2 construct: the purification of the GST fusions is not described; also called InCHIL; EFP; source: E. coli (pGEX4T-1)

Kd [1]: 9.15 nM | koff [1]: 0.00137 s⁻¹ | kon [1]: 150000 M⁻¹ s⁻¹
B1: glutathione S-transferase-tagged Arabidopsis thaliana chalcone isomerase-like protein (AtCHIL) (natural protein)
chain: MVMVHEVPFPPQIITSKPLSLLGQGITDIEIHFLQVKFTAIGVYLDPSDVKTHLDNWKGKTGKELAGDDDFFDALASAEMEKVIRVVVIKEIKGAQYGVQLENTVRDRLAEEDKYEEEEETELEKVVGFFQSKYFKANSVITYHFSAKDGICEIGFETEGKEEEKLKVENANVVGMMQRWYLSGSRGVSPSTIVSIADSISAVLT
notes: chalcone isomerase-like protein AtCHIL, Arabidopsis thaliana; source: E. coli (pGEX4T-1)

Kd [2]: 1 nM
B2: His6-tagged CHS of morning glory (enzyme)
chain: MVTVEEVRKAQRAEGPATILAIGTATPANCVDQSTYPDYYFRITNSDHMTDLKQKFQRMCDKSMITKRYMHLTEEILKENPSFCEYMAPSLDARQDIVVVEVPKLGKEAAQSAIKEWGQPKSKITHVIFCTTSGVDMPGADYQLTKLLGLRPSVKRLMMYQQGCFAGGTVLRVAKDLAENNKAARVLVVCSEITVVTFRGPNETHLDSLVGQALFGDGAAAIIVGSDPTPAEKPLFQLVSAAQTLAPDSCGAIDGHLREVGLTFHLLKDVPSIVSNNIEKCLSEAFNPLGISDWNSIFWIAHPGGPAILDQVEDKLGLKPEKLRATRHVLSEYGNMSSACVLFILDEMRKASSNDGLGTTGEGLEWGVLFGFGPGLTIETVVLHSVPA
